This passage reports Km and kcat results from publication PMC2360559, “Repeated cycles of Clostridium-directed enzyme prodrug therapy result in sustained antitumour effects in vivo” (British Journal of Cancer, 2006).

For this data set, the system named is NC(=O)c1cc(N2CC2)c([N+](=O)[O-])cc1[N+](=O)[O-]. The data set is described as follows: purified protein. In kind it is biochemical, Haemophilus influenzae. The following applies: 100–1000 μM CB 1954, 500 μM NADPH, 37°C, 10 min, product 4HX.

“NTR-H; Haemophilus influenzae NfnB; YC78_HAEIN; HinNTR (Haemophilus influenzae Rd KW20)”: the Michaelis-Menten constant (Km) (usually the substrate concentration at which the rate is half of its maximum) worked out at 690 µM; the turnover number (kcat) (as a rule, the number of substrate molecules converted per active site and unit of time at saturation) came to 56.2 s⁻¹.
